The text below walks through data of article PMC10967632, “Anti-CD99 Antibody Therapy Triggers Macrophage-Dependent Ewing Cell Death In Vitro and Myeloid Cell Recruitment In Vivo” (Antibodies, 2024).

The target in experiment [1] is T1, Human His-tagged PILRα, extracellular domain (human, UniProt Q9UKJ1 20-197).
T1 construct: PILRα, human, extracellular domain; Band at 55 kDa on SDS-PAGE; also called human PILRα; source: Expi293F, transfected (pcDNA3.4), purified from the supernatant (HisPur Ni-NTA column)
Description: ELISA; plate coated with 2 µg/mL human CD99, PILRα at 0.25 to 5 µg/mL, detected with an anti-PILRα antibody and HRP-bound secondary. The settings on record: both partners purified. Background: In an ELISA, binding on a coated surface is turned into a signal by an enzyme label.

The target in experiment [2] is T2, CD99 (or MIC2), 32 kDa type I membrane glycoprotein, on cells (Homo sapiens, UniProt P14209).
T2 construct: CD99 (MIC2), human, endogenous on the cell surface; also called Ewing CD99; macrophage CD99; source: endogenous, on human Ewing sarcoma cell lines (A673, TC32, CADO-ES1, TC71, TTC466); endogenous, on monocytes derived from human PBMCs
In words: flow cytometry on cells; Ewing sarcoma cells incubated with anti-CD99 IgG1 (2 µg/mL; NOA1 10 µg/mL; NOA2 also titrated) for one hour at 4 °C, then FITC-conjugated mouse anti-human IgG; CD99-negative Kelly neuroblastoma cells as negative control. The settings on record: one partner purified.

T1 sequence (Q9UKJ1 20-197): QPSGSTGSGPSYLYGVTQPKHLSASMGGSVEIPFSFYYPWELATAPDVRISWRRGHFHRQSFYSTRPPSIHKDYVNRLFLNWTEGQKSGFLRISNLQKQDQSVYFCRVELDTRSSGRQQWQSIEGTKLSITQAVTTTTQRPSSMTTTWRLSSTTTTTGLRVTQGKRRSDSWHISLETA

B1: soluble human CD99 (coated on the ELISA plate) (natural protein, UniProt P14209 23-122, looked up)
chain: DGGFDLSDALPDNENKKPTAIPKKPSAGDDFDLGDAVVDGENDDPRPPNPPKPMPNPNPNHPSSSGSFSDADLADGVSGGEGKGGSDGGGSHRKEGEEAD
notes: human CD99, soluble; May be the same CD99-Fc (G&P Biosciences) as m6
As for B1, the binding result in experiment [1] was “binds”.

B2: NOA3, anti-CD99 monoclonal antibody (IgG1) (antibody, V domains shown)
VH: EVQLVQSGAEVKKPGESLKIACKGSGYSFSKYWIGWVRQMPGKGLEWMGIIYPGDSDTRYSPSFQGQVTISVDTSISTAYLQWSSLKASDTAIYYCARHLRNFGDAFDIWGQGTTVTVSS
VL: SYELTQPPSVSVSPGQTARITCSGDALPKQYAYWYQQKPGQSPVLVIYQDSKRPSGIPERFSGSNSGNTATLTISGTQAMDEADYYCQAWDSSTAFGGGTKLTVL
notes: constant region IgG1; IgG1; isolated by phage display
On to B2, for which the binding result in experiment [2] is listed as “binds”.
